[ ]: non-standard residue; d: D form. The star is where a group is joined. FITC = O=C1OC2(c3ccc(O)cc3Oc3cc(O)ccc32)c2ccc(NC(=S)*)cc21; Abu = CC[C@H](N)C(=O)O; Ahx = NCCCCCC(=O)O
What was measured:
HCV NS3•4A = biological target: T1, HCV NS3•4A (Hepatitis C virus genotype 1a, UniProt P27958); experiment: HCV NS3 peptide cleavage assay with full-length NS3•4A (determination of Km and Vmax); type: biochemical, HCV sub-type strain 1a; settings: enzyme NS3•4A; peptide substrate varied 3 μM to 200 μM; 25 μM NS4A peptide; reverse phase HPLC
T1 construct: hexa-histidine (N); made in house; host or cells: Sf9 insect cells (recombinant baculovirus, pVL1392-His-NS3•4A)
Protocol: (§1) This assay follows the cleavage of a peptide substrate by full-length hepatitis C viral protein NS3•4A. One of three peptide substrates based on the NS5A/NS5B cleavage site for genotype 1a HCV, shown in table 3 below, is used to measure enzyme activity. All substrate stock solutions (25 mM) were prepared in DMSO containing 0.2 M DTT and stored at −20° C. A synthetic peptide cofactor (NS4A Peptide) was used to supplement NS4A. The hydrolysis reaction was performed in a 96-well microtiter plate format using 100 ηM to 125 ηM HCV NS3•4A in buffer containing 50 mM HEPES pH 7.8, 100 mM NaCl, 20% glycerol, 5 mM DTT and 25 μM NS4A peptide. The final DMSO concentration was no greater than 2% v/v. Reactions using NS5AB or NS5AB-EDANS as substrate were quenched by the addition of 10% trifluoroacetic acid (TFA) to yield a final TFA concentration of 2.5%. Reactions using FITC-NS5AB-1 as substrate were quenched by the addition of 0.4 M formic acid to yield a final concentration of 0.08 M acid.
(§2) Enzymatic activity was assessed by separation of substrate and products using reverse phase HPLC. The instrument used was an Agilent 1100 with a G1322A degasser, either a G1312A binary pump or a G1311A quaternary pump, a G1313A autosampler, a G1316A column thermostated chamber, a G1321A fluorescence detector and a G1315A diode array detector. The column thermostat was at 40° C. […] The C-terminal product peak (NH2-SMSY-COOH) was quantified using the absorbance data collected at 210 ηm. […] The C-terminal product peak (NH2-SMSYT-Asp(EDANS)-KKK-COOH) was quantified using the fluorescence data collected at 350 ηm excitation/490 ηm emission. […] The N-terminal product peak (FITC-Ahx-EDVV-(alpha)Abu-C-COOH) was quantified using the fluorescence data collected at 440 ηm excitation/520 ηm emission. Alternatively, the ratio of N-terminal product to unreacted FITC-NS5AB-1 substrate was determined using a Caliper LabChip 3000 with detection at 488 ηm excitation/530 ηm emission, using a chip buffer of 100 mM Tris pH 7.0, 10 mM EDTA, 0.01% (v/v) Brij-35, and 0.1% (v/v) CR-3. […]

[1] = test system: CC[C@H](NC(=O)[C@@H](NC(=O)[C@@H](NC(=O)[C@H](CC(=O)O)NC(=O)[C@@H](N)CCC(=O)O)C(C)C)C(C)C)C(=O)N[C@@H](CS)C(=O)N[C@@H](CO)C(=O)N[C@@H](CCSC)C(=O)N[C@@H](CO)C(=O)N[C@@H](Cc1ccc(O)cc1)C(=O)O; experiment: HCV NS3 protease domain peptide cleavage assay (determination of Km and Vmax); type: biochemical; settings: other: enzyme NS3 Protease Domain; peptide substrate varied 3 μM to 200 μM; 25 μM KK4A cofactor; reverse phase HPLC; pH 7.8; 40.0 °C
Protocol: This assay is a modification of that described by Landro, et al. (Landro J A, Raybuck S A, Luong Y C, O'Malley E T, Harbeson S L, Morgenstern K A, Rao G and Livingston D L. Biochemistry 1997, 36, 9340-9348), and uses a peptide substrate (NS5AB), based on the NS5A/NS5B cleavage site for genotype 1a HCV. The substrate stock solution (25 mM) was prepared in DMSO containing 0.2 M DTT and stored at −20° C. A synthetic peptide cofactor (KK4A) was used as a substitute for the central core region of NS4A. The reaction was performed in a 96-well microtiter plate format using 25 ηM to 50 ηM HCV NS3 protease domain in buffer containing 50 mM HEPES pH 7.8, 100 mM NaCl, 20% glycerol, 5 mM DTT and 25 μM KK4A. The final DMSO concentration was no greater than 2% v/v. […]
The SMSY product was separated from substrate and KK4A using a microbore separation method. […] The SMSY product peak was quantified using the data collected at […].
To determine the kinetic parameters Km and Vmax, the HCV NS3 protease domain or HCV NS3•4A was reacted with peptide substrate under the assay conditions described above. […] The ratio of the product peak area (as determined by reverse phase HPLC) to the reaction time yielded a rate of enzyme catalyzed hydrolysis. […] The value of kcat was determined from Vmax using the nominal protease concentration and a fully cleaved substrate peptide as an instrument calibration standard.

[2] = test system: CC[C@H](NC(=O)[C@@H](NC(=O)[C@@H](NC(=O)[C@H](CC(=O)O)NC(=O)[C@@H](N)CCC(=O)O)C(C)C)C(C)C)C(=O)N[C@@H](CS)C(=O)N[C@@H](CO)C(=O)N[C@@H](CCSC)C(=O)N[C@@H](CO)C(=O)N[C@@H](Cc1ccc(O)cc1)C(=O)O; experiment: HCV NS3 peptide cleavage assay with full-length NS3•4A (determination of Km and Vmax); type: biochemical, HCV sub-type strain 1a; settings: other: enzyme NS3•4A; peptide substrate varied 3 μM to 200 μM; 25 μM NS4A peptide; reverse phase HPLC; 40.0 °C
Protocol: as §1, §2

## FITC-Ahx-EDVV-(alpha)Abu-CSMSYTKK-NH2 ({FITC}-[Ahx]EDVV[Abu]CSMSYTKK-NH2) [FITC-NS5AB-1, FITC-labelled peptide substrate based on the NS5A/NS5B cleavage site for genotype 1a HCV]
HCV NS3•4A
  Km: 15 µM

## HCV NS3 protease domain (Hepatitis C virus (isolate Con1))
[1]
  Km: 25 µM
  kcat/Km: 30000 M⁻¹ s⁻¹

## HCV NS3•4A (Hepatitis C virus (isolate H77))
[2]
  Km: 30 µM
  kcat/Km: 7900 M⁻¹ s⁻¹
